Measurements as given in patent publication US20030064061A1, “Bcr-Abl oligomerization domain polypeptides and uses therefor” (Whitehead Institute for Biomedical Research, priority 2001, published 2003).
Where a chain is given by its changes, count along the chain named.

Experiments:
[1] = Circular dichroism thermal denaturation; type: physicochemical; conditions: stable α-helical structure, PBS pH 7.4, heated from 0-98° C.
Experimental: Circular dichroism experiments were performed on an Aviv 62A DS circular dichroism spectrometer. Measurements from […] were performed in a 10 μM solution of protein sample in PBS (50 mM Na phosphate, 150 mM NaCl, pH 7.4) in a 1-mm path-length cuvette. Thermal denaturation was performed in a 10 mm path-length cuvette and samples were heated from 0-98° C., with equilibration times of 2 minutes and an averaging time of 1 minute. Protein concentrations were determined by absorbance at 280 nm in 20 mM phosphate-buffered 6M guanidine-hydrochloride (pH 6.5) (H. Edelhoch, Biochemistry 6, 1948-54 (1967)).

[2] = Solubility in physiological buffers; type: physicochemical
[3] = target: T1, Bcr-Abl (Homo sapiens, UniProt P00519+P11274); conditions: literature reports (Guo 1998; Wu 1999); cited from earlier work
T1 construct: c-Abl portion (ABL1, fusion partner)
T1 sequence (P11274 1-426 limits assumed): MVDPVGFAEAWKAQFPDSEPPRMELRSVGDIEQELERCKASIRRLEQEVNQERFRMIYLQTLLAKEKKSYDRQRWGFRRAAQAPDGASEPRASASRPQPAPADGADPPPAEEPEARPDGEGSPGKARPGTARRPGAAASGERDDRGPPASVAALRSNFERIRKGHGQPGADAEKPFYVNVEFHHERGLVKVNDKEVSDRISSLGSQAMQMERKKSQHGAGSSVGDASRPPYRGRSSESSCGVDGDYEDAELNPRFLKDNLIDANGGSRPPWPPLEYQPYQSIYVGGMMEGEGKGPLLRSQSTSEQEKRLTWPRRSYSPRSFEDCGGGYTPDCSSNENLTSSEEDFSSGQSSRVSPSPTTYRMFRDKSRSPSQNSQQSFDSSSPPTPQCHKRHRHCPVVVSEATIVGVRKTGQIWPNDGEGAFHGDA

[4] = test system: Bcr-Abl transformation of Rat-1 fibroblasts; assay: Rat-1 focus-formation assay; type: cell-based; conditions: Rat-1 fibroblasts cotransfected with MIG-P210 and increasing doses of plasmid B74; foci counted after 3 weeks
Experimental: FIG. 5 is a graphic representation of results of a Rat-1 focus-formation assay. Data shown are the average of three dishes and are representative of four independent experiments. Error bars indicate the standard deviation of foci numbers between the experiments.
Whether the Bcr-Abl oligomerization domain inhibits full-length Bcr-Abl oligomerization in a dominant-negative manner was assessed. […] The total number of transformed foci was quantified after 3 weeks. Transected cultures were stained with 0.4% crystal violet to better visualize transformed foci.
For expression in mammalian cells, Bcr1-74 fragments were PCR amplified from pMBP/Bcr1-74 (with the optimal E. coli codons) as mentioned above, and inserted into the retroviral expression vector pMX-IRES-GFP (X. Liu et al., Anal Biochem 280, 20-28 (2000)) using BamHI and NotI sites. The resulting plasmid was denoted p74-IES-GFP (B74). Although it has been reported that the Bcr oligomerization domain as contained in residues 1-71 (SEQ ID NO: 19; SEQ ID NO: 20) of the Bcr protein cannot be stably expressed in mammalian cells (C. L. Sawyers, N Engl J Med 340, 1330-40 (1999)), a fair amount of Bcr1-74 (SEQ ID NO: 7) protein was detected by Western blotting when B74 was expressed in vivo. It is possible that use of E. coli-optimized codons improved expression in this domain. […] The total number of transformed foci was counted after 3 weeks.

[5] = target: Bcr1-72C38A (Bcr-Abl oligomerization domain, residues 1-72 of human Bcr, Cys38 mutated to Ala), monomer chain (human); assay: X-ray crystal structure, interface analysis
[6] = target: Bcr1-72C38A (Bcr-Abl oligomerization domain, residues 1-72 of human Bcr, Cys38 mutated to Ala), monomer chain (human); assay: X-ray crystal structure, buried surface
[7] = target: Bcr1-72C38A dimer (domain-swapped antiparallel coiled-coil dimer seen in the crystal) (human); assay: X-ray crystal structure, buried surface

Ac-DIEQELERCKASIRRLEQEVNQERFRMIYLQTLLAK-NH2 [Bcr30-65]
midpoint of thermal denaturation (Tm) [1]: 60 °C | solubility in physiological buffers [2]: poor solubility

B1: N-terminal 160 amino acids of Bcr: N-terminal 160 amino acids of Bcr, which contain the oligomerization domain (literature) (protein, UniProt P11274 1-160, looked up, fragment)
chain: MVDPVGFAEAWKAQFPDSEPPRMELRSVGDIEQELERCKASIRRLEQEVNQERFRMIYLQTLLAKEKKSYDRQRWGFRRAAQAPDGASEPRASASRPQPAPADGADPPPAEEPEARPDGEGSPGKARPGTARRPGAAASGERDDRGPPASVAALRSNFER
Bcr-Abl transformation [3]: inhibit Bcr-Abl transformation

B2: full-length Bcr: Full-length human Bcr protein, 1271 amino acids (literature) (protein, UniProt P11274 1-1271, looked up)
chain: MVDPVGFAEAWKAQFPDSEPPRMELRSVGDIEQELERCKASIRRLEQEVNQERFRMIYLQTLLAKEKKSYDRQRWGFRRAAQAPDGASEPRASASRPQPAPADGADPPPAEEPEARPDGEGSPGKARPGTARRPGAAASGERDDRGPPASVAALRSNFERIRKGHGQPGADAEKPFYVNVEFHHERGLVKVNDKEVSDRISSLGSQAMQMERKKSQHGAGSSVGDASRPPYRGRSSESSCGVDGDYEDAELNPRFLKDNLIDANGGSRPPWPPLEYQPYQSIYVGGMMEGEGKGPLLRSQSTSEQEKRLTWPRRSYSPRSFEDCGGGYTPDCSSNENLTSSEEDFSSGQSSRVSPSPTTYRMFRDKSRSPSQNSQQSFDSSSPPTPQCHKRHRHCPVVVSEATIVGVRKTGQIWPNDGEGAFHGDADGSFGTPPGYGCAADRAEEQRRHQDGLPYIDDSPSSSPHLSSKGRGSRDALVSGALESTKASELDLEKGLEMRKWVLSGILASEETYLSHLEALLLPMKPLKAAATTSQPVLTSQQIETIFFKVPELYEIHKEFYDGLFPRVQQWSHQQRVGDLFQKLASQLGVYRAFVDNYGVAMEMAEKCCQANAQFAEISENLRARSNKDAKDPTTKNSLETLLYKPVDRVTRSTLVLHDLLKHTPASHPDHPLLQDALRISQNFLSSINEEITPRRQSMTVKKGEHRQLLKDSFMVELVEGARKLRHVFLFTDLLLCTKLKKQSGGKTQQYDCKWYIPLTDLSFQMVDELEAVPNIPLVPDEELDALKIKISQIKNDIQREKRANKGSKATERLKKKLSEQESLLLLMSPSMAFRVHSRNGKSYTFLISSDYERAEWRENIREQQKKCFRSFSLTSVELQMLTNSCVKLQTVHSIPLTINKEDDESPGLYGFLNVIVHSATGFKQSSNLYCTLEVDSFGYFVNKAKTRVYRDTAEPNWNEEFEIELEGSQTLRILCYEKCYNKTKIPKEDGESTDRLMGKGQVQLDPQALQDRDWQRTVIAMNGIEVKLSVKFNSREFSLKRMPSRKQTGVFGVKIAVVTKRERSKVPYIVRQCVEEIERRGMEEVGIYRVSGVATDIQALKAAFDVNNKDVSVMMSEMDVNAIAGTLKLYFRELPEPLFTDEFYPNFAEGIALSDPVAKESCMLNLLLSLPEANLLTFLFLLDHLKRVAEKEAVNKMSLHNLATVFGPTLLRPSEKESKLPANPSQPITMTDSWSLEVMSQVQVLLYFLQLEAIPAPDSKRQSILFSTEV
modifications: full-length
Bcr-Abl transformation [3]: inhibit Bcr-Abl transformation

B3: Bcr1-74: Residues 1-74 of human Bcr; expressed in Rat-1 cells from retroviral plasmid B74 (p74-IRES-GFP) (protein, UniProt P11274 1-74, looked up, fragment)
chain: MVDPVGFAEAWKAQFPDSEPPRMELRSVGDIEQELERCKASIRRLEQEVNQERFRMIYLQTLLAKEKKSYDRQR
transforming potential of Bcr-Abl (number of transformed foci) [4]: inhibited the transforming potential of Bcr-Abl

B4: Bcr1-72C38A (Bcr-Abl oligomerization domain, residues 1-72 of human Bcr, Cys38 mutated to Ala), monomer chain (protein, UniProt P11274 1-72 with C38A, looked up)
chain: MVDPVGFAEAWKAQFPDSEPPRMELRSVGDIEQELERAKASIRRLEQEVNQERFRMIYLQTLLAKEKKSYDR
modifications: oligomerization domain residues 1-72 selenomethionine form also used
hydrogen bonds in the dimer interface (hydrogen bonds) [5]: 3 | salt bridges in the dimer interface [5]: 7 salt bridges | van der Waals contacts in the dimer interface (radius cutoff 4 Å) [5]: 217 contacts | solvent-accessible surface buried upon dimer formation [6]: 4200 Å^2

B5: Bcr1-72C38A dimer (domain-swapped antiparallel coiled-coil dimer seen in the crystal) (protein, UniProt P11274 1-72 with C38A, looked up)
chain: B4 chain
modifications: oligomerization domain residues 1-72, homodimer
solvent-accessible surface buried upon association of two dimers [7]: 3400 Å^2

B6: Bcr1-72: Recombinant wild-type polypeptide, residues 1-72 of the N-terminus of human Bcr (oligomerization domain) (protein, UniProt P11274 1-72, looked up, fragment)
chain: B4 chain with A38C
midpoint of thermal denaturation (Tm) [1]: 84 °C
